From PMC8612989 (Environmental microbiology reports, 2021)

Columns and labels:
[1] = target: Ayg1p chain-shortening enzyme (Aspergillus fumigatus, UniProt Q9UVV1); assay: T4HN production detected in yeast co-expressing alb1 and ayg1; type: cell-based; conditions: S. cerevisiae INVSc1-npgA, YWA1 formed in the cell by Alb1p; 30 °C
[2] = test system: O=C1C[C@H](O)Cc2cc(O)cc(O)c21; assay: purified protein; conditions: conditions not separately told (YWA1 assay: pH 6.0, 30 °C)
[3] = target: T1, Arp1p with His-tag (Arp1p-HT), Arp1p dehydratase of Aspergillus fumigatus (Aspergillus fumigatus (strain B-5233)), O14434; assay: SEC; conditions: remark: other sources report otherwise
T1 chain: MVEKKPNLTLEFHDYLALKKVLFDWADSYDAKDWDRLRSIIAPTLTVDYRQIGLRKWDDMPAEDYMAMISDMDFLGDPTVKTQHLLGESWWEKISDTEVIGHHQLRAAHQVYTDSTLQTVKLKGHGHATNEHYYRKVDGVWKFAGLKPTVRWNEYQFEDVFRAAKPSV

## CC1(O)CC(=O)c2c(cc3cc(O)cc(O)c3c2O)O1 (stereo not shown) [YWA1]
[1]
  T4HN production detected in yeast co-expressing alb1 and ayg1: co-transformed into yeast (S. cerevisiae INVSc1-npgA/pYES-alb1+p425-ayg1) and T4HN production was detected

## Arp1p (Arp1p-HT) dehydratase (Aspergillus fumigatus Af293)
[2]
  Km: 15.7 µM
  kcat: 2.7 s⁻¹

B1: Arp1p with His-tag (Arp1p-HT), Arp1p dehydratase of Aspergillus fumigatus, O14434 1-168 (enzyme)
chain: MVEKKPNLTLEFHDYLALKKVLFDWADSYDAKDWDRLRSIIAPTLTVDYRQIGLRKWDDMPAEDYMAMISDMDFLGDPTVKTQHLLGESWWEKISDTEVIGHHQLRAAHQVYTDSTLQTVKLKGHGHATNEHYYRKVDGVWKFAGLKPTVRWNEYQFEDVFRAAKPSV
[3]
  stoichiometry N: 3
